Where no end group is shown, it is not given here. [ ]: non-standard residue; d: D form.
Key:
FPR1 = conditions: at 100 nM; cited from earlier work
[1] = target: T1, FLAG-tagged human FPR2 (Hs_FPR2) (human, UniProt P25090 1-351); assay: cell-based or functional assay
T1 sequence (looked up): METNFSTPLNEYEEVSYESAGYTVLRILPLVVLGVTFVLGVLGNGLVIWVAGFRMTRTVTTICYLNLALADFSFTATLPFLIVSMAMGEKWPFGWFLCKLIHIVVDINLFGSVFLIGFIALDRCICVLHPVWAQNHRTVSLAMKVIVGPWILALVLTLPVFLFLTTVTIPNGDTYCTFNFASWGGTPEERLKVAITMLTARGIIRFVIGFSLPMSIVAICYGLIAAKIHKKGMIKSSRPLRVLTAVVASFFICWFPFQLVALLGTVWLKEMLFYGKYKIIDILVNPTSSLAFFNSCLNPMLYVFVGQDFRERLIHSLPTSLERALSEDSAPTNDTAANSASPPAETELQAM

[2] = target: T2, FLAG-tagged mouse Fpr1 (Mm_Fpr1) (mouse, UniProt P33766 1-364); assay: cell-based or functional assay
T2 sequence (looked up): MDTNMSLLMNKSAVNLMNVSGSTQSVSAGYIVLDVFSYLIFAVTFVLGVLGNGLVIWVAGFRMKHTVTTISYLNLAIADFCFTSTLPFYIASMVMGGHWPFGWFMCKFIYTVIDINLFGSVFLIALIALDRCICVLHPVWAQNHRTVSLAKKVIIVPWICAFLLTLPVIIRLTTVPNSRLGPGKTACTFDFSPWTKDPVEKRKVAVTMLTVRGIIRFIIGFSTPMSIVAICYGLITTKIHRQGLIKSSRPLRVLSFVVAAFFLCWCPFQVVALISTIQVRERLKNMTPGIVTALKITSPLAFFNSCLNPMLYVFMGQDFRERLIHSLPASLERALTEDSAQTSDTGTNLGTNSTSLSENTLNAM

[3] = target: T3, FLAG-tagged mouse Fpr2 (Mm_Fpr2) (mouse, UniProt O88536 1-351); assay: cell-based or functional assay
T3 sequence (looked up): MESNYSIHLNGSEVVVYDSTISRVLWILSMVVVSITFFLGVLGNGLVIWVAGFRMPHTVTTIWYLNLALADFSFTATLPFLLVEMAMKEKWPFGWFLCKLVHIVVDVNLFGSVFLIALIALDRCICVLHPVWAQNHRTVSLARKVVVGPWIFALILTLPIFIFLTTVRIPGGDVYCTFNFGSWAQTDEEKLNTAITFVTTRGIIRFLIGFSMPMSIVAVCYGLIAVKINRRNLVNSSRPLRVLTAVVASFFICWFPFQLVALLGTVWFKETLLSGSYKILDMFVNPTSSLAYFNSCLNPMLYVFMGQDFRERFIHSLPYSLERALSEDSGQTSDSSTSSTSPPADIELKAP

[4] = target: T4, FLAG-tagged human FPR1 (Hs_FPR1) (human, UniProt P21462 1-350); assay: cell-based or functional assay
T4 sequence (looked up): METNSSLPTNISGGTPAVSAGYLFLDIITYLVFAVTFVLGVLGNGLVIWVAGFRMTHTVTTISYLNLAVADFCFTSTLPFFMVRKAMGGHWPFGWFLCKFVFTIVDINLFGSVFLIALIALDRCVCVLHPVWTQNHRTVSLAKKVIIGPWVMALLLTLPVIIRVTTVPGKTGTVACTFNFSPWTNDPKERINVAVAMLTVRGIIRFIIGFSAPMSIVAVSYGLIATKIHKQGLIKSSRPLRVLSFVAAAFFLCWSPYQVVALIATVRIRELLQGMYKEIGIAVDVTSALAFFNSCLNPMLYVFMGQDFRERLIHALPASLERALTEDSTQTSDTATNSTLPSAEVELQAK

[5] = target: T1, FLAG-tagged human FPR2 (Hs_FPR2); assay: cell-based or functional assay; remark: listed apart in the source
[6] = target: T5, FLAG-Hs_FPR1 C-terminally fused to Renilla Luciferase 8 (human, UniProt P21462 1-350); assay: cell-based or functional assay
T5 sequence (looked up): T4 sequence (looked up)

[7] = target: T6, FLAG-Hs_FPR2 C-terminally fused to Renilla Luciferase 8 (human, UniProt P25090 1-351); assay: cell-based or functional assay
T6 sequence (looked up): T1 sequence (looked up)

[8] = target: T7, FLAG-Mm_Fpr1 C-terminally fused to Renilla Luciferase 8 (mouse, UniProt P33766 1-364); assay: cell-based or functional assay
T7 sequence (looked up): T2 sequence (looked up)

[9] = target: T8, FLAG-Mm_Fpr2 C-terminally fused to Renilla Luciferase 8 (mouse, UniProt O88536 1-351); assay: cell-based or functional assay
T8 sequence (looked up): T3 sequence (looked up)

[10] = target: T1, FLAG-tagged human FPR2 (Hs_FPR2); assay: flow cytometry on cells; competition binding: HEK293 cells stably expressing the receptor, lifted in PBS, on ice 90 min with 10 nM K(5/6-FAM)-WKYMVm and increasing unlabeled ligand; mean fluorescence of 5000 cells as % of that without competitor; One site-Fit logIC50
[11] = target: T2, FLAG-tagged mouse Fpr1 (Mm_Fpr1); assay: as above
[12] = target: T4, FLAG-tagged human FPR1 (Hs_FPR1); assay: as above

## Cc1cccc(-c2oc(C)nc2C(=O)Nc2cnn(Cc3nc(C(C)(F)F)co3)n2)c1 [ACT-389949]
FPR1
  arrestin recruitment to FPR1, Pathhunter: neither WKYMVM nor ACT-389949 resulted in recruitment

B1: WKYMVm (peptide)
peptide: WKYMV[dM]
notes: the last residue is the D form; the bought peptide is probably also an amide (surmise); source: bought: Tocris
[1]
  ERK1/2 phosphorylation (Western blot): Emax (% of 1 μM WKYMVm): 93.8%
[2]
  ERK1/2 phosphorylation (Western blot): Emax (% of 1 μM WKYMVm): 102%
  ERK1/2 phosphorylation (Western blot): Log EC50 (M): -8.43 log M
[3]
  ERK1/2 phosphorylation (Western blot): Emax (% of 1 μM WKYMVm): 118%
  ERK1/2 phosphorylation (Western blot): Log EC50 (M): -9.06 log M
[4]
  ERK1/2 phosphorylation (Western blot): Emax (% of 1 μM WKYMVm): 104%
  ERK1/2 phosphorylation (Western blot): Log EC50 (M): -9.1 log M
[5]
  receptor internalization (flow cytometry): Emax (% of 1 μM WKYMVm): 97.5%
  receptor internalization (flow cytometry): Log EC50 (M): -8 log M
[6]
  BRET of receptor-RLuc8 with Venus-mGsi: Emax (% of 1 μM WKYMVm): 112%
[7]
  BRET of receptor-RLuc8 with Venus-mGsi: Emax (% of 1 μM WKYMVm): 100%
  BRET of receptor-RLuc8 with Venus-mGsi: Log EC50 (M): -8.11 log M
[8]
  BRET of receptor-RLuc8 with Venus-mGsi: Emax (% of 1 μM WKYMVm): 109%
  BRET of receptor-RLuc8 with Venus-mGsi: Log EC50 (M): -6.69 log M
[9]
  BRET of receptor-RLuc8 with Venus-mGsi: Emax (% of 1 μM WKYMVm): 103%
  BRET of receptor-RLuc8 with Venus-mGsi: Log EC50 (M): -7.51 log M
[10]
  Log IC50: -7.7 log M
  Max Comp (%): 100%
[11]
  Log IC50: -6.79 log M
  Max Comp (%): 97%
[12]
  Log IC50: -7.42 log M
  Max Comp (%): 96.8%

— article PMC12881670, “Investigation into ligand selectivity and bias at the formyl peptide receptor family” (The Journal of Pharmacology and Experimental Therapeutics, 2025)
